The values that follow come from patent US20230340152A1 (published 2023).

The target of experiment [1] is T1, Human CD73 on cells (MDA-MB-231, Jurkat CD73 knock-in, NCI-H322) (human, UniProt P21589 27-549).
T1 construct: GPI-anchored native protein; also called native human CD73
T1 sequence: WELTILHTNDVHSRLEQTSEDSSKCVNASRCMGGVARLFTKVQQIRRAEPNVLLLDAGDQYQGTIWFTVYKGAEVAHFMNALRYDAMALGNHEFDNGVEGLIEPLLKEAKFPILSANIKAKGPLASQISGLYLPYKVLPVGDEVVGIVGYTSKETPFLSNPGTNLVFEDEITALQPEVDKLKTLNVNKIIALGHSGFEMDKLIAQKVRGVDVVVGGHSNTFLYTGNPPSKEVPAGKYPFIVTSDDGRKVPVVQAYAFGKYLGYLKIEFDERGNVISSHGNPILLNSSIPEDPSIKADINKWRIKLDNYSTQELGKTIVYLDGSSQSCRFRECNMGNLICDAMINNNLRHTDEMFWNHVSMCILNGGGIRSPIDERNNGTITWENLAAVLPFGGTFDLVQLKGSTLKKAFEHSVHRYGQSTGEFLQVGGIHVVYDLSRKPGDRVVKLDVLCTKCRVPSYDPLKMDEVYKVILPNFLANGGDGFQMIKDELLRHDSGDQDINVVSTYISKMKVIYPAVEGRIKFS
Briefly: FACS on MDA-MB-231 cells, vs CD730002SGMY.

The target in experiment [2] is T1, Human CD73 on cells (MDA-MB-231, Jurkat …). The experiment is described as follows: cell-based or functional assay.
Experiment [3] addresses T2, Human CD73 ECD (human, UniProt P21589 27-549).
T2 sequence: T1 sequence
The experiment is described as follows: cell-based or functional assay.

Another experiment concerns the target T3, Murine CD73 ECD (murine, UniProt Q61503 29-551, limits assumed).
T3 construct: extracellular domain; In-house recombinant ECD; also called murine CD73 extracellular domain; muCD73
T3 sequence (looked up): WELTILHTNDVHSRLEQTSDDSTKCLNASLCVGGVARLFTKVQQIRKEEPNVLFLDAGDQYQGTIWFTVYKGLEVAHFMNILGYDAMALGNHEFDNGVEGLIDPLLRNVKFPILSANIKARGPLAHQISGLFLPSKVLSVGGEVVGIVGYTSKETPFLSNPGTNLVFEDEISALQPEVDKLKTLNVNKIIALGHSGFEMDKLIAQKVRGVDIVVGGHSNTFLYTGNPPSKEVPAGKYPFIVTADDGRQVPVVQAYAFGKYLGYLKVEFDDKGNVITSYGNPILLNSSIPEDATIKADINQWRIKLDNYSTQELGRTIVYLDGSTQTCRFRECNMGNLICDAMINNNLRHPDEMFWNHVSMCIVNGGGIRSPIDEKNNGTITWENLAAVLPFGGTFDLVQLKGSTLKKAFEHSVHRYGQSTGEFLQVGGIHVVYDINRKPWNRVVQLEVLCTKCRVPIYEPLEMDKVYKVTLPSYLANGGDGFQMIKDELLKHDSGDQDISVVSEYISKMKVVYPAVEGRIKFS
Briefly: direct ELISA, normalized Fab supernatant, vs CD730010 GL9. A general note: In an ELISA, binding on a coated surface is turned into a signal by an enzyme label.

Experiment [4] concerns the target T2, Human CD73 ECD. The description is as above.
In experiment [5] the target is T2, Human CD73 ECD. Briefly: SPR (Proteon).
In experiment [6] the target is T4, Cynomolgus CD73 on MK-1 cells (cynomolgus, UniProt A0A2K5V5U7 27-549).
T4 construct: whole, on cells; also called MK-1 (cyno)
T4 sequence: T1 sequence with M199T, T350A, V466I
The experiment is described as follows: flow cytometry on cells.

Experiment [7] has as its target T1, Human CD73 on cells (MDA-MB-231, Jurkat …). The experiment is described as follows: flow cytometry on cells. A general note: In flow cytometry, cells or beads pass a laser one at a time.
Experiment [8] has as its target T5, Murine CD73 on cells (4T1, Jurkat mCD73 knock-in) (murine, UniProt Q61503 29-551).
T5 construct: whole, on cells; also called 4T1 (murine)
T5 sequence (looked up): T3 sequence (looked up)
Briefly: flow cytometry on cells.

The target in experiment [9] is T1, Human CD73 on cells (MDA-MB-231, Jurkat …). Briefly: cell-based or functional assay. This is another data set of the same source.
Experiment [10] has as its target T2, Human CD73 ECD. The experiment is described as follows: binding assay, format not stated.

Substitutions are numbered along the chain they refer to. Names and notes keep the numbering of the source.

B1: CD730002SGMY CDRH2 G65R (Fab, V domains shown)
VH: EVQLLESGGGLVQPGGSLRLSCAASGFTFSSYAMSWVRQAPGKGLEWVSAISGSGGSTYYADSVKRRFTISRDNSKNTLYLQMNSLRAEDTAVYYCARDKGYYWYMDVWGQGTMVTVSS
VL: QSVLTQPPSVSVSPGQTASITCSGDKVGDKYASWYQQKPGQSPVLVIYEDTKRPSGIPERFSGSNSGNTATLTISGTQAMDEADYYCQAWDTSFWVFGGGTKLTVL
notes: format in the FACS read-out not clearly stated
For the molecule B1, the “FACS signal, fold improvement over parental antibody” value (“FACS signal, fold improvement” below) in experiment [1] came out at 1.3 fold.

B2: CD730002SGMY CDRH1 M34R (Fab, V domains shown)
VH: B1 VH with M34R, R66G
VL: B1 VL
notes: as for B1
B2: the “FACS signal, fold improvement” value in [1] stood at 1.1 fold.

B3: CD730002SGMY CDRH2 A60G (Fab, V domains shown)
VH: B1 VH with A61G, R66G
VL: B1 VL
notes: as for B1
As to B3, the “FACS signal, fold improvement” value in experiment [1] turned out to be 1.3 fold.

B4: CD730002SGMY CDRL2 P55H (Fab, V domains shown)
VH: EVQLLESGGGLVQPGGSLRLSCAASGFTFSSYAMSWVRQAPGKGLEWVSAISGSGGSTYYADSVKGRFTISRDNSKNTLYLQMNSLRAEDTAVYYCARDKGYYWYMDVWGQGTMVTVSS
VL: B1 VL with P54H
notes: format not clearly stated
As for B4, the “FACS signal, fold improvement” value in experiment [1] stood at 1.5 fold.

B5: CD730002SGMY CDRH1 Y32V (Fab, V domains shown)
VH: B1 VH with Y32V, R66G
VL: B1 VL
notes: as for B1
For the molecule B5, the “FACS signal, fold improvement” value in experiment [1] was found to be 1.2 fold.

B6: CD730002SGMY CDRH2 T57P (Fab, V domains shown)
VH: B1 VH with T58P, R66G
VL: B1 VL
notes: as for B1
B6: in experiment [1], the “FACS signal, fold improvement” value is 1.5 fold.

B7: CD730069 (antibody, V domains shown)
VH: EVQLLESGGGLVQPGGSLRLSCAASGFTFSEYQMGWVRQAPGKGLEWVSYIRSSGGQTIYADSVKGRFTISRDNSKNTLYLQMNSLRAEDTAVYYCARRTYSSGWHIDYWGQGTLVTVSS
VL: DIQMTQSPDSLSASVGDRVTITCRASQSISRYLNWYQQKPGKAPKLLIYGASSLQSGVPSRFSGSGSGTDFSLTISSLQLEDFATYYCQQSYRTPLTFGGGTKVEIQ
For B7, in experiment [2], the “Enzyme Inhibition, MDA-MB-231, 1/EC50 (nM)” value was 0.0013 nM⁻¹ and the “Internalization, MDA-MB-231, 1/EC50 (nM)” value is 0.038 nM⁻¹. In addition, the “Enzyme Inhibition, rCD73, 1/EC50 (nM)” value with Human CD73 ECD [3] came to 0.038 nM⁻¹.

B8: CD730010 GL9 VH A50L Fab (Fab, name in Kabat numbering, V domains shown)
VH: EVQLLESGGGLVQPGGSLRLSCAASGFTFSSYAMSWVRQAPGKGLEWVSLISGSGGSTYYADSVKGRFTISRDNSKNTLYLQMNSLRAEDTAVYYCARLGYSTIDYWGRGTLVTVSS
VL: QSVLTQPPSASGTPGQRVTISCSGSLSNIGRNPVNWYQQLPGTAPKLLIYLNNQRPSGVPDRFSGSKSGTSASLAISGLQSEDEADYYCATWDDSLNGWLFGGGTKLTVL
notes: Bacterial Fab, normalized supernatant
In the case of B8, the “ELISA signal, fold improvement over parental antibody” value with Murine CD73 ECD was determined as 3 fold; in the experiment with Human CD73 ECD [4] it was 4.2 fold.

B9: C2 (IgG1-TM) (antibody, V domains shown)
VH: B8 VH with M34Y, S52W, G55W, Y106M
VL: QSVLTQPPSASGTPGQRVTISCSGSLSNIGRNPVNWYQQLPGTAPKLLIYLDNLRLGGVPDRFSGSKSGTSASLAISGLQSEDEADYYCATWDDSLKGWLFGGGTKLTVL
notes: IgG1-TM format; also called clone 10 C2
For B9, the equilibrium dissociation constant (Kd) amounted to 23 pM with Human CD73 ECD [5], 105 pM in experiment [6], 158 pM in [7] and 67 pM in experiment [8].

B10: G10 (IgG1-TM) (antibody, V domains shown)
VH: B8 VH with M34Y, L50A, G55W, S57R, Y106L
VL: B9 VL with P33D, D52N, L54Q
notes: IgG1-TM format; also called clone 10 G10
B10: the dissociation constant Kd is 9 pM with Human CD73 ECD [5], 258 pM in experiment [6], 354 pM in [7] and 259 pM in [8].

B11: 73combo2 (C2+GRVE+HPT) (antibody, V domains shown)
VH: B8 VH with M34Y, S52W, G55W, S102G, T103R, I104V, Y106E
VL: B9 VL with L96H, K97P, L100T
notes: IgG1-TM format; also called clone 10 combo2
On to B11, for which the Kd with Human CD73 ECD [5] came out at 5 pM; in [6] it was 74 pM; in [7], 166 pM; in [8], 64 pM.

B12: 73combo5 (G10+GRVE+HPT) (antibody, V domains shown)
VH: B8 VH with M34Y, L50A, G55W, S57R, S102G, T103R, I104V, Y106E
VL: B9 VL with P33D, D52N, L54Q, L96H, K97P, L100T
notes: IgG1-TM format; also called clone 10 combo5
Consider B12, for which the dissociation constant Kd in the experiment with Human CD73 ECD [5] is 7 pM; in experiment [6] it was 78 pM; in experiment [7], 169 pM; in experiment [8], 205 pM.

B13: Phen0203 hIgG1 (antibody, V domains shown)
VH: EVQLVQSGGGVVQPGRSLRLSCAASGFRFSDFAMHWVRQAPGKGLEWVAGISYDGGNKYYADSVKGRFTISRDNSNNTLYLQMNSLRAEDTAVYYCAKDHGYSGYYGHLDYWGRGTLVTVSS
VL: not shown
As to B13, in experiment [9], the “FabZAP internalization, EC50, MDA-MB-231” value was found to be 92.5 pM and the “FabZAP internalization, maximum toxicity, MDA-MB-231” value worked out at 91%.

B14: CD730068 (antibody, V domains shown)
VH: EVQLLESGGGLVQPGGSLRLSCAASGFTFSNYIMGWVRQAPGKGLEWVSSISSSGGATIYADSVKGRFTISRDNSKNTLYLQMNSLRAEDMAVYYCAKDHLGGHGMDVWGQGTTVTVSS
VL: DIQMTQSPSSLSASVGDRVTITCRASQDISNYLAWFQQKPGKAPKSLIFAASSLESGVPSKFSGSGSGTDFTLTISSLQPEDSATYYCQQYNSYPLTFGGGTKVEIK
Turning to B14, in experiment [2], the “Enzyme Inhibition, MDA-MB-231, 1/EC50 (nM)” value was 0 nM⁻¹ and the “Internalization, MDA-MB-231, 1/EC50 (nM)” value was determined as 0 nM⁻¹. For the same molecule, in the experiment with Human CD73 ECD [3], the “Enzyme Inhibition, rCD73, 1/EC50 (nM)” value was found to be 0 nM⁻¹.

B15: CD730002SGMY CDRL2 T52S (Fab, V domains shown)
VH: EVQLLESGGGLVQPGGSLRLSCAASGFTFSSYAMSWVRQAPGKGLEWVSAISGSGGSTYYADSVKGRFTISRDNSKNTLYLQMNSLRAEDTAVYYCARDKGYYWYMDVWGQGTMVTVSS
VL: QSVLTQPPSVSVSPGQTASITCSGDKVGDKYASWYQQKPGQSPVLVIYEDSKRPSGIPERFSGSNSGNTATLTISGTQAMDEADYYCQAWDTSFWVFGGGTKLTVLL
notes: format not clearly stated
As to B15, the “FACS signal, fold improvement” value in [1] was 1.5 fold.

B16: CD730002SGMY CDRL2 R54Y (Fab, V domains shown)
VH: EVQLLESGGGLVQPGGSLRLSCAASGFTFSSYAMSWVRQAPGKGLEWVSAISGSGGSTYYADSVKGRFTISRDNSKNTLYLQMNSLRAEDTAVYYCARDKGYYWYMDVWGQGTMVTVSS
VL: B15 VL with S51T, R53Y, L107V
notes: format not clearly stated
With B16, the “FACS signal, fold improvement” value in [1] is 1.2 fold.

B17: CD730047 (antibody, V domains shown)
VH: EVQLVQSGGGVVQPGRSLRLSCAASGFTFSSYGMHWVRQAPGKGLEWVAVISYDGSIKYYADSVKGRFAISRDNAKNTLYLQMNSLRREDTAMYYCASGLTGVAGALGVWGRGTLVTVSS
VL: QSVLTQPPSASGAPGQRVTISCSGSSSNIGSNTVNWYQRLPGAAPQLLIYNNDQRPSGIPDRFSGSKSGTSGSLVISGLQSEDEADYYCAAWDDSLSGNVFGTGTKVTVL
notes: IgG1-TM format; also called CD730047 antibody
On to B17, for which, in [2], the “Enzyme Inhibition, MDA-MB-231, 1/EC50 (nM)” value came to 0.027 nM⁻¹ and the “Internalization, MDA-MB-231, 1/EC50 (nM)” value turned out to be 0.001 nM⁻¹. For the same molecule, the “Enzyme Inhibition, rCD73, 1/EC50 (nM)” value with Human CD73 ECD [3] came to 0.001 nM⁻¹. Besides, the 1/EC50 with Human CD73 ECD [10] was 0 nM⁻¹.

The term Kd denotes a measure of binding affinity in units of concentration. A lower Kd goes with a tighter complex.
